The values that follow come from US20150203579A1 (Regeneron, published 2015).

Bounds are passed on as bounds.

To fix the notation:
B1: H4xH8999P (antibody, V domains shown)
VH: QLQLQESGPGLVQPSETLSLTCTVSGDSISSTAYHWDWIRQPPGKGLEWIGTITYNGNTYFNPSLKSRVTISVDTSKNQFSLKLLSMTAAETAVFYCARHLGYNSDFFPFDFWGQGTLVTVSS
VL: not shown
notes: Human IgG4 Fc with 2 or more amino acid changes (H4xH)
B2: H4xH9008P (antibody, V domains shown)
VH: EVQLVESGGGLVRPGGSLRLSCAASGFTFSTYAMAWVRQTPGKGLEGVSAIGGSGDSTYYVDSVKGRFTISRDNSKSTLFLQMNSLRAEDTAVYYCVKVRNYDGSFDIWGQGTMVTVSS
VL: not shown
notes: as for B1
B3: H4xH9135P2 (antibody, V domains shown)
VH: EVQLVESGGSVVRPGGSLRLSCVVSGFTFEDYGLSWVRQIPGKGLEWVSGISWTGGNTGYADSVKGRFTISRDNAKNSLYLQMNSLRAEDTALYHCTRDRQWLMQWYFDYWGQGTLVTVSS
VL: not shown
notes: as for B1
B4: H4xH9145P2 (antibody, V domains shown)
VH: QVQLVESGGGVVQPGRSLRLSCSASGFTFSAYAMHWVRQAPGKGLEWVAAISYGGSDKYYADSVKGRFTISRDNSKNTLYLQMNSLRTDDTAVYYCAKSAHWNFFFDYWGQGTLVTVSS
VL: not shown
notes: as for B1

The first assay concerns the target T1, recombinant human PD-1 expressed with a C-terminal myc-myc-hexahistidine tag (human).
T1 construct: monomeric; also called hPD-1-MMH; human PD-1-MMH
The experiment in a line: SPR, mAb captured, 37C. (In general: SPR reads the build-up and loss of mass on a sensor chip optically.)
As usually defined, the Kd is the free concentration of one partner at which half of the binding sites on the other are occupied at equilibrium, for simple one-to-one binding. For orientation: t½ means how long it takes for the measured level to halve. As for B1, the Kd came to 15.7 nM and the t½ was 1.2 min.

For B2, the Kd came out at 62.6 nM and the t½ is 1.4 min.

As a reminder, the koff is the rate constant with which the complex falls apart. As usually defined, the kon is a measure of how fast the partners come together. For the molecule B3, the Kd was 26.6 nM, the koff amounted to 0.0111 s⁻¹, the kon is 418000 M⁻¹ s⁻¹ and the t½ amounted to 1 min.

For B4, the Kd turned out to be 94 nM, the koff came out at 0.0123 s⁻¹, the kon was 131000 M⁻¹ s⁻¹ and the t½ was 0.9 min.

The target in another assay is T2, human PD-1 dimer (human PD-1-mFc or human PD-1-hFc) (human, UniProt Q15116 25-170).
T2 construct: also called hPD-1-mFc; hPD1-hFc
T2 sequence (Q15116 25-170 C93S): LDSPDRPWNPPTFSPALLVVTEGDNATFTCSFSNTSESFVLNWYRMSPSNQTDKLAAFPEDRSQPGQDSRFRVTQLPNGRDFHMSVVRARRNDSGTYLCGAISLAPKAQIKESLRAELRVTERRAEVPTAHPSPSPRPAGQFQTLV
The experiment in a line: SPR, mAb captured, 25C.
B1 gave a Kd of 0.217 nM and a t½ of 96 min.

Molecule B2 displayed a Kd of 0.796 nM and a t½ of 412 min.

B3 had an equilibrium dissociation constant (Kd) of 0.651 nM, a koff of 0.000138 s⁻¹, a kon of 212000 M⁻¹ s⁻¹ and a t½ of 84 min.

The molecule B4 gave a Kd of 2.4 nM, a koff of 0.000158 s⁻¹, a kon of 65800 M⁻¹ s⁻¹ and a t½ of 73 min.

A further assay deals with T2, human PD-1 dimer (human PD-1-mFc or …). The experiment in a line: SPR, mAb captured, 37C.
In the case of B1, the affinity, expressed as Kd, was 0.596 nM and the t½ came to 26 min.

For the molecule B2, the Kd was not above 0.181 nM and the t½ was not below 1160 min.

B3 gave a Kd of 2.27 nM, a koff of 0.000702 s⁻¹, a kon of 310000 M⁻¹ s⁻¹ and a t½ of 16 min.

As to B4, the affinity, expressed as Kd, was 3.58 nM; the koff was 0.000571 s⁻¹; the association rate constant (kon) was 160000 M⁻¹ s⁻¹; the t½ stood at 20 min.

The target in the next assay is T3, recombinant cynomolgus monkey PD-1 expressed with a C-terminal myc-myc-hexahistidine tag (cynomolgus monkey (Macaca fascicularis)).
T3 construct: monomeric; also called MfPD-1-MMH
T3 chain: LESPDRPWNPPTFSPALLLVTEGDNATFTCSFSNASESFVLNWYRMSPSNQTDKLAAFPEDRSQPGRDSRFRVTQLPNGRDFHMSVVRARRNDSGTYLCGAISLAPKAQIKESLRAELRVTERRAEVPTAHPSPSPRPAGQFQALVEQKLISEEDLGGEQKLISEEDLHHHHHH
The experiment in a line: SPR, mAb captured, 25C.
With B1, the Kd turned out to be 3.09 nM and the t½ amounted to 8.7 min.

B2: the Kd turned out to be 23.8 nM and the t½ worked out at 4.6 min.

Take B3: the Kd worked out at 10.6 nM, the koff came out at 0.00131 s⁻¹, the kon was 124000 M⁻¹ s⁻¹ and the t½ is 8.8 min.

Consider B4, for which the Kd turned out to be 43.1 nM, the koff turned out to be 0.00124 s⁻¹, the kon is 28600 M⁻¹ s⁻¹ and the t½ amounted to 9.3 min.

Another assay has as its target T3, recombinant cynomolgus monkey PD-1 …. Put plainly: SPR, mAb captured, 37C.
With B1, the Kd came to 9.41 nM and the t½ was 1.2 min.

Take B2: the Kd came to 23.5 nM and the t½ amounted to 0.8 min.

In the case of B3, the dissociation constant Kd turned out to be 28.9 nM, the koff was found to be 0.0134 s⁻¹, the kon was determined as 462000 M⁻¹ s⁻¹ and the t½ came to 0.9 min.

For the molecule B4, the Kd worked out at 83.7 nM, the koff was found to be 0.0143 s⁻¹, the kon turned out to be 171000 M⁻¹ s⁻¹ and the t½ is 0.8 min.
